Data taken from patent publication EP4644418A1 (Hebei Senlang Biotechnology Co. Ltd., dated 2025).

Legend:
[1] = target: T1, BCMA-His protein (extracellular region of human BCMA, His-tagged) (human, UniProt Q02223 1-54); experiment: ELISA, BCMA-His coated, anti-human IgG1 Fc-HRP detection
T1 construct: extracellular domain; Made in house and purified on a Ni column; also called human BCMA antigen; recombinant BCMA-His protein; not shown: His tag
T1 sequence (looked up): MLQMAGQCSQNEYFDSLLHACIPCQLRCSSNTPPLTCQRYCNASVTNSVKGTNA

[2] = target: T1, BCMA-His protein (extracellular region …); experiment: SPR (Biacore 8K), BCMA-His captured on NTA chip, nanobody-Fc as analyte, 1:1 binding fit
[3] = target: T1, BCMA-His protein (extracellular region …); experiment: flow cytometry (MFI) of transduced K562 cells stained with BCMA-His and an anti-His tag antibody
[4] = target: T1, BCMA-His protein (extracellular region …); experiment: monoclonal phage ELISA on coated BCMA protein, HA-HRP detection
[5] = target: T1, BCMA-His protein (extracellular region …); experiment: flow cytometry of CAR-T cells stained with BCMA-His and an anti-His tag antibody

B1: dNb003-B-Fc (Fc fusion)
chain: QVQLQESGGGSVQPGGSLRLSCKASGFTFSPSAMSWARQAPGKEIEWVSNIYPDGRTYYADSMKGRFTISRDNAENTVYLQMNSLKPEDTAVYYCLIGVGIVAGQVVSPYWGQGTQVTVSSGGGGSGGGGSGGGGSGGGGSGGGGSQVQLQESGGGLVQPGGSLRLSCAASGFTFSNYAMSWFRQGPGKERELVAGIDRTGGSTRTADSVQGRFTISRDNAKNKVYLQMNSLKPEDTAVYYCKALRTPGWGTSPDVVGYWGQGTQVTVSS
modifications: biotinylated for the flow cytometry assay only (sites not given)
notes: not shown: N-terminal SUMO tag from plasmid pET-28a-Sumo-Nb-Fc; human IgG1 Fc tag at the C-terminus
[1]
  EC50: 0.346 nM
[2]
  Kd: 1.94 nM
  koff: 0.00245 s⁻¹
  kon: 1.27e+06 M⁻¹ s⁻¹

B2: dNMC003-A (dual VHH CAR, VHH02-(G4S)5-VHH02, on K562 or CAR-T cells) (other)
chain: QVQLQESGGGLVQPGGSLRLSCAASGFTFSNYAMSWFRQGPGKERELVAGIDRTGGSTRTADSVQGRFTISRDNAKNKVYLQMNSLKPEDTAVYYCKALRTPGWGTSPDVVGYWGQGTQVTVSSGGGGSGGGGSGGGGSGGGGSGGGGSQVQLQESGGGLVQPGGSLRLSCAASGFTFSNYAMSWFRQGPGKERELVAGIDRTGGSTRTADSVQGRFTISRDNAKNKVYLQMNSLKPEDTAVYYCKALRTPGWGTSPDVVGYWGQGTQVTVSSTTPAPRPPTPAPTIASQPLSLRPEACRPAAGGAVHTRGLDFACDIYIWAPLAGTCGVLLLSLVITLYCKRGRKKLLYIFKQPFMRPVQTTQEEDGCSCRFPEEEEGGCELRVKFSRSADAPAYKQGQNQLYNELNLGRREEYDVLDKRRGRDPEMGGKPRRKNPQEGLYNELQKDKMAEAYSEIGMKGERRRGKGHDGLYQGLSTATKDTYDALHMQALPPR
notes: T2A-tEGFR follows in the construct and is split off at T2A; also called K562-dNMC003-A; dNMC003-A CAR-T
[3]
  binding result: binds

B3: Nb003-01 (VHH01), monoclonal phage clone (VHH)
VHH: QVQLQESGGGSVQPGGSLRLSCKASGFTFSPSAMSWARQAPGKEIEWVSNIYPDGRTYYADSMKGRFTISRDNAENTVYLQMNSLKPEDTAVYYCLIGVGIVAGQVVSPYWGQGTQVTVSS
[4]
  binding result: binds

B4: Nb003-01-Fc (Fc fusion)
chain: B3 VHH
modifications: biotinylated for the flow cytometry assay only (sites not given)
notes: also called VHH01; not shown: N-terminal SUMO tag from plasmid pET-28a-Sumo-Nb-Fc; human IgG1 Fc tag at the C-terminus
[1]
  EC50: 2.05 nM
[2]
  Kd: 62 nM
  koff: 0.000857 s⁻¹
  kon: 13800 M⁻¹ s⁻¹

B5: Nb003-02-Fc (Fc fusion)
chain: QVQLQESGGGLVQPGGSLRLSCAASGFTFSNYAMSWFRQGPGKERELVAGIDRTGGSTRTADSVQGRFTISRDNAKNKVYLQMNSLKPEDTAVYYCKALRTPGWGTSPDVVGYWGQGTQVTVSS
modifications: biotinylated for the flow cytometry assay only (sites not given)
notes: also called VHH02; not shown: N-terminal SUMO tag from plasmid pET-28a-Sumo-Nb-Fc; human IgG1 Fc tag at the C-terminus
[1]
  EC50: 0.652 nM
[2]
  Kd: 1.79 nM
  koff: 0.00212 s⁻¹
  kon: 1.19e+06 M⁻¹ s⁻¹

B6: Nb003-02 (VHH02), monoclonal phage clone (VHH)
VHH: B5 chain
[4]
  binding result: binds

B7: NMC003-01 (single VHH CAR with VHH01, on CAR-T cells) (other)
chain: QVQLQESGGGSVQPGGSLRLSCKASGFTFSPSAMSWARQAPGKEIEWVSNIYPDGRTYYADSMKGRFTISRDNAENTVYLQMNSLKPEDTAVYYCLIGVGIVAGQVVSPYWGQGTQVTVSSTTPAPRPPTPAPTIASQPLSLRPEACRPAAGGAVHTRGLDFACDIYIWAPLAGTCGVLLLSLVITLYCKRGRKKLLYIFKQPFMRPVQTTQEEDGCSCRFPEEEEGGCELRVKFSRSADAPAYKQGQNQLYNELNLGRREEYDVLDKRRGRDPEMGGKPRRKNPQEGLYNELQKDKMAEAYSEIGMKGERRRGKGHDGLYQGLSTATKDTYDALHMQALPPR
notes: also called NMC003-01 CAR-T
[5]
  binding result: binds

B8: dNMC003-B (dual VHH CAR, VHH01-(G4S)5-VHH02, on K562 or CAR-T cells) (other)
chain: QVQLQESGGGSVQPGGSLRLSCKASGFTFSPSAMSWARQAPGKEIEWVSNIYPDGRTYYADSMKGRFTISRDNAENTVYLQMNSLKPEDTAVYYCLIGVGIVAGQVVSPYWGQGTQVTVSSGGGGSGGGGSGGGGSGGGGSGGGGSQVQLQESGGGLVQPGGSLRLSCAASGFTFSNYAMSWFRQGPGKERELVAGIDRTGGSTRTADSVQGRFTISRDNAKNKVYLQMNSLKPEDTAVYYCKALRTPGWGTSPDVVGYWGQGTQVTVSSTTPAPRPPTPAPTIASQPLSLRPEACRPAAGGAVHTRGLDFACDIYIWAPLAGTCGVLLLSLVITLYCKRGRKKLLYIFKQPFMRPVQTTQEEDGCSCRFPEEEEGGCELRVKFSRSADAPAYKQGQNQLYNELNLGRREEYDVLDKRRGRDPEMGGKPRRKNPQEGLYNELQKDKMAEAYSEIGMKGERRRGKGHDGLYQGLSTATKDTYDALHMQALPPR
notes: T2A-tEGFR follows in the construct and is split off at T2A; also called K562-dNMC003-B; dNMC003-B CAR-T
[3]
  binding result: binds
